In patent US20130347134A1 (published 2013) one finds binding result and koff data, which are given here for 4 molecules.

Assay [1] concerns the target T1, human platelet glycoprotein Ib alpha (GPIb α) on human platelets (human, UniProt P07359 17-652).
T1 construct: whole, on cells; Native receptor on washed platelets or whole blood; also called GPIb alpha; hGPIb-α
Description: parallel-plate flow chamber: human whole blood perfused over the surface-immobilized recombinant A1 protein, shear rate 1600 s^-1, accumulated platelets counted.

Assay [2] has as its target T1, human platelet glycoprotein Ib alpha …. In words: human platelet attachment in flow to human VWF-A1 as a function of wall shear rate.
Assay [3] concerns the target T2, murine platelet glycoprotein Ib alpha (GPIb α) on mouse platelets (mouse, UniProt O35930 17-734).
T2 construct: whole, on cells; Native receptor on mouse platelets or whole blood; also called murine GPIb α; mGPIb-α
T2 sequence (looked up): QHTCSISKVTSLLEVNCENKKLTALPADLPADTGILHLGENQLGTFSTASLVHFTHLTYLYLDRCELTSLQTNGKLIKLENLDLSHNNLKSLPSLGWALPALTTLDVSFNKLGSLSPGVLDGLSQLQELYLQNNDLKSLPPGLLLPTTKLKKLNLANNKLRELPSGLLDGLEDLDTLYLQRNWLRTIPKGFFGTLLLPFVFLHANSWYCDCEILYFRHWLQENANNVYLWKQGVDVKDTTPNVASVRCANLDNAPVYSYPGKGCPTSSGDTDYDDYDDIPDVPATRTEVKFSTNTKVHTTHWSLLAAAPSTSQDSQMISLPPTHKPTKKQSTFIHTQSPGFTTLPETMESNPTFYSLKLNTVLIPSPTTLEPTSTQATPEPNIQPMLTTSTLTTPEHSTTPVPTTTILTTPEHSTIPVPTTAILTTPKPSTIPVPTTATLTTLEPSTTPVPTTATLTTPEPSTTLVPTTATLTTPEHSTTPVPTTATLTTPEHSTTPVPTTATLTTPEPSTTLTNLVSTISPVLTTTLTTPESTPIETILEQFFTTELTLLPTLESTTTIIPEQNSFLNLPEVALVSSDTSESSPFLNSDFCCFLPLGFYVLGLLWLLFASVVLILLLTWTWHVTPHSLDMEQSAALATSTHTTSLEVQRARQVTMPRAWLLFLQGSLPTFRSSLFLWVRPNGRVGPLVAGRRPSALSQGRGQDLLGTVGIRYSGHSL
Description: transient tethers of VWF-A1-coated beads on surface-immobilized murine platelets; shear stress 2.0 dyn cm-2; R2 0.95. As to the method: (§1) The force acting on the i tether bond was calculated from force balance equations and koff plotted as a function of these forces. […] Because these platelets cannot activate, the kinetics should be reflective of GPIb α in the resting state.
(§2) This antibody was made by immunizing Fischer 344 rats (3-4 months old) with recombinant WT protein. […] Spleens from animals with the highest antibody titers were harvested and splenocytes fused with Sp2/0 mouse myeloma cells (Kohler, et al., 1975).

The target in assay [4] is T2, murine platelet glycoprotein Ib alpha …. Description: transient tethers of VWF-A1-coated beads on surface-immobilized murine platelets; shear stress 3.0 dyn cm-2; R2 0.98. Here is the method:
as §1, §2

Assay [5] deals with T1, human platelet glycoprotein Ib alpha …. In words: human platelets (5x10^7/ml) perfused over coverslips coated with VWF-A1 (100 µg/ml), parallel plate flow chamber, 800 s-1. Here is the method:
The protein was subsequently used in a series of in vitro flow chamber assays to assess function. […] After 5 minutes of continuous flow, adherent platelets were quantified.

In assay [6] the target is T2, murine platelet glycoprotein Ib alpha …. In words: transient tethers of VWF-A1-coated beads on surface-immobilized murine platelets; shear stress 0.5 dyn cm-2; R2 0.96. As to the method:
as §1, §2

Assay [7] has the same target. Description: transient tethers of VWF-A1-coated beads on surface-immobilized murine platelets; shear stress 2.0 dyn cm-2; R2 0.98. As to the method:
as §1, §2

Assay [8] shares this target. In words: transient tethers of VWF-A1-coated beads on surface-immobilized murine platelets; shear stress 1.0 dyn cm-2; R2 0.95. As to the method:
as §1, §2

Changes are numbered by the printed parent chain. Names may count otherwise.

B1: recombinant murine rVWF-A1 1326R>H (residues 1238 to 1471), Example 3 (ligand)
chain: QEPGGLVAPPTDAPVSSTTPYVEDTPEPPLHNFYCSKLLDLVFLLDGSSMLSEAEFEVLKAFVVGMMERLHISQKRIRVAVVEYHDGSHAYLELKARKRPSELRRITSQIKYTGSQVASTSEVLKYTLFQIFGKIDRPEASHITLLLTASQEPPRMARNLVRYVQGLKKKKVIVIPVGIGPHASLKQIRLIEKQAPENKAFLLSGVDELEQRRDEIVSYLCDLAPEAPAPTQPP
Consider B1, for which the binding result in assay [1] was “binds”.

B2: recombinant human VWF-A1 containing 1309I>V and the type 2M mutation 1324G>S (ligand)
chain: QEPGGLVVPPTDAPVSPTTLYVEDISEPPLHDFYCSRLLDLVFLLDGSSRLSEAEFEVLKAFVVDMMERLRVSQKWVRVAVVEYHDSSHAYIGLKDRKRPSELRRIASQVKYAGSQVASTSEVLKYTLFQIFSKIDRPEASRIALLLMASQEPQRMSRNFVRYVQGLKKKKVIVIPVGIGPHANLKQIRLIEKQAPENKAFVLSSVDELEQQRDEIVSYLCDLAPEAPPPTLPPH
Regarding B2, the binding result in assay [2] is reported as “no binding”.

B3: recombinant wild-type murine VWF-A1 protein, His-tagged (amino acids 1233 to 1471, pQE9), Examples 1-2 (ligand)
chain: TCEACQEPGGLVAPPTDAPVSSTTPYVEDTPEPPLHNFYCSKLLDLVFLLDGSSMLSEAEFEVLKAFVVGMMERLHISQKRIRVAVVEYHDGSRAYLELKARKRPSELRRITSQIKYTGSQVASTSEVLKYTLFQIFGKIDRPEASHITLLLTASQEPPRMARNLVRYVQGLKKKKVIVIPVGIGPHASLKQIRLIEKQAPENKAFLLSGVDELEQRRDEIVSYLCDLAPEAPAPTQPP
notes: Disulfide C1272-C1458; also called mouse VWF-A1; M VWF-A1; not shown: 10 vector-derived N-terminal amino acids including 6xHis (pQE9)
Consider B3, for which the koff was determined as 8.4 s⁻¹ in assay [3], 9.9 s⁻¹ in assay [4] and 5.1 s⁻¹ in assay [6]. The binding result in assay [5] is “binds”.

B4: recombinant murine VWF-A1 containing the type 2B mutation I1309V (1309I>V) (ligand)
chain: B3 chain with I77V
notes: not shown: 10 vector-derived N-terminal amino acids including 6xHis (pQE9)
Turning to B4, the koff in assay [7] worked out at 1.6 s⁻¹; in assay [8], 0.9 s⁻¹; in assay [6], 0.7 s⁻¹.

What is called koff is the rate constant with which the complex falls apart. A higher koff goes with fast dissociation.
